T1: recombinant human Brevican (human, UniProt Q96GW7 23-911, limits assumed)
T1 sequence: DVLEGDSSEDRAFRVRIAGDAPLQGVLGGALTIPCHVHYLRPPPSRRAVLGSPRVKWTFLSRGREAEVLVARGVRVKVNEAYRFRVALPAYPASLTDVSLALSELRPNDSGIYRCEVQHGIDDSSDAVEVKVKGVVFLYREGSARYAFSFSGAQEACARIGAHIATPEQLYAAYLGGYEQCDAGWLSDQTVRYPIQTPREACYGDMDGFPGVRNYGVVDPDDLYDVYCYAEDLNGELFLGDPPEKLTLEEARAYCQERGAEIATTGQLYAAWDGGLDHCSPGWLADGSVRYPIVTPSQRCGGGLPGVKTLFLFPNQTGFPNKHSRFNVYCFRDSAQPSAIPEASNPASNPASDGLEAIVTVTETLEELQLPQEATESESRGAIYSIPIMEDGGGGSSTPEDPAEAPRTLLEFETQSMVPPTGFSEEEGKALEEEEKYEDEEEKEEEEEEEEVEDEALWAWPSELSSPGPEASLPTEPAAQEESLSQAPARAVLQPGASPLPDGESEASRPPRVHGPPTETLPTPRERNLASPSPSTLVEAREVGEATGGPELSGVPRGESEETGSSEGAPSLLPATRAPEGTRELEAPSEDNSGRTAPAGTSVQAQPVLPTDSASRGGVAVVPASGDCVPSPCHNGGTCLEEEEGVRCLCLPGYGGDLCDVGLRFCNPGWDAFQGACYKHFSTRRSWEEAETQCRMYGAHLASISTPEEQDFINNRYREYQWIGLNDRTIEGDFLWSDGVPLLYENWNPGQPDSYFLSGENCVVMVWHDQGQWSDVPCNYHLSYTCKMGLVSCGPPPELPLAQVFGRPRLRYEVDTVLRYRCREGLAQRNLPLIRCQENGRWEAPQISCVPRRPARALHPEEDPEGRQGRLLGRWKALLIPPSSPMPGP


Columns and labels:
[1] = target: recombinant human Neurocan (human, UniProt O14594 23-1321, limits assumed); assay: ELISA on recombinant human Neurocan
[2] = target: T1, recombinant human Brevican; assay: ELISA on recombinant human Brevican
[3] = target: T2, recombinant bovine Aggrecan G1-IGD-G2 (bovine, UniProt P13608 20-684, limits assumed); assay: SPR (ProteOn), off-rate only indicative
T2 construct: also called Bov G1-IGD-G2; Boy G1-IGD-G2
Description: (§1) SPR (ProteOn) experiments were carried out for the “monovalent” Aggrecan-ALB26 formats in order to determine off-rates.

[4] = target: T3, recombinant human Aggrecan G1-IGD-G2 (human, UniProt P16112 20-676); assay: SPR (ProteOn), off-rate only indicative
T3 construct: Only the G1-IGD-G2 region was used (R&D Systems 1220-PG is named for the immunogen); also called Hu G1-IGD-G2
Description: as §1

[5] = target: T4, recombinant dog Aggrecan G1-IGD-G2 (dog, UniProt Q28343 20-693, limits assumed); assay: SPR (ProteOn), off-rate only indicative
T4 construct: also called Dog G1-IGD-G2
Description: as §1

[6] = target: T5, recombinant rat Aggrecan G1-IGD-G2 (rat, UniProt P07897 20-684, limits assumed); assay: SPR (ProteOn), off-rate only indicative
T5 construct: also called Rat G1-IGD-G2
Description: as §1

[7] = target: T2, recombinant bovine Aggrecan G1-IGD-G2; assay: ELISA on recombinant G1-IGD-G2
[8] = target: T3, recombinant human Aggrecan G1-IGD-G2; assay: ELISA on recombinant G1-IGD-G2
[9] = target: T4, recombinant dog Aggrecan G1-IGD-G2; assay: ELISA on recombinant G1-IGD-G2
[10] = target: T5, recombinant rat Aggrecan G1-IGD-G2; assay: ELISA on recombinant G1-IGD-G2

| binding result [1] | binding result [2] | koff [3] | koff [4] | koff [5] | koff [6] | EC50 [7] | EC50 [8] | EC50 [9] | EC50 [10] | Binder |
| --- | --- | --- | --- | --- | --- | --- | --- | --- | --- | --- |
| no binding | no binding | 0.0013 s⁻¹ | 0.0034 s⁻¹ | 0.0071 s⁻¹ | 0.00025 s⁻¹ | 1.2 nM | 5.1 nM | 0.61 nM | 0.32 nM | C01010046 (601E08-ALB26) (VHH, not shown: small tags and cut ends) VHH: DVQLVESGGGLVQPGGSLRLSCTASGRTFSSYAVGWFRQAPGKEREFVAAISRSGRSTYYADSVKGRFTISRDNSKNTVYLQMNSLRPEDTAVYYCAAGLSYYSPHAYYDYWGQGTLVTVSS |
| no binding | no binding | 0.26 s⁻¹ | 0.17 s⁻¹ | 0.12 s⁻¹ | 0.26 s⁻¹ | 1.6 nM | 1.2 nM | 2.6 nM | 5.9 nM | C01010094 (604F02-ALB26) (VHH, not shown: small tags and cut ends, also called C010100094) VHH: DVQLVESGGGLVQPGGSLRLSCAASGRTFSSYTMGWFRQAPGKEREFVAAISWSGGRTYYADSVKGRFTISRDNSKNTVYLQMNSLRPEDTAVYYCAAYRRRRASSNRGLWDYWGQGTLVTVSS |
| no binding | no binding | 0.47 s⁻¹ | 0.013 s⁻¹ | 0.011 s⁻¹ | 0.65 s⁻¹ | 5.6 nM | 6 nM | 3 nM | 7.6 nM | C01010054 (114F08-ALB26) (VHH, not shown: small tags and cut ends, also called C010100054) VHH: EVQLVESGGGLVQAGGSLRLSCAASGSTFIINVVRWYRRTPGKQRELVATISSGGNANYVDSVRGRFSISRDGAKNAVDLQMNGLKPEDTAVYYCNVPTTHYGGVYYGPYWGQGTQVTVSS |
| no binding | no binding | 0.0027 s⁻¹ | 0.0025 s⁻¹ | 0.083 s⁻¹ | 0.0015 s⁻¹ | 0.28 nM | 0.24 nM | 25 nM | 0.33 nM | C01010097 (608A05-ALB26) (VHH, not shown: small tags and cut ends) VHH: DVQLVESGGGLVQPGGSLRLSCAASGRTFSTYTMGWFRQAPGKEREFVAAISWSGGTTYYADSVKGRFTISRDNSKNTVYLQMNSLRPEDTAVYYCAARPRYYYYSLYSYDYWGQGTLVTVSS |
| – | no binding | 0.027 s⁻¹ | 0.021 s⁻¹ | 0.038 s⁻¹ | 0.021 s⁻¹ | – | 12 nM | 6.9 nM | 8.4 nM | C01010060 (606A07-ALB26) (VHH, not shown: small tags and cut ends) VHH: DVQLVESGGGLVQPGGSLRLSCVASGRTFSIYGMGWFRQAPGKEREFVAAINGGSRTYYADSVKGRFTISRDNSKNTVYLQMNSLRPEDTAVYYCAADRSGYGTSLDWWYDYWGQGTLVTVSS |
